Values of other authors, collected in doi:10.1101/2024.03.27.586990.

Target: Asp27 (UniProt position 27, WNLPADLAWFK)
Settings: unbound state (no inhibitor), as described by this article

In the case of “Dihydrofolate reductase (DHFR) (Escherichia coli)”, the pKa is given as 6.5.
